Measured values as given in patent US20160046671A1.
Bridges are numbered along the chain shown (N, C = ends). Where no end group is shown, it is not given here. [ ]: non-standard residue; d: D form. S5 = C=CCCC[C@](C)(N)C(=O)O

Molecular target: Wild-type human KRAS protein, N-terminal His6-tag fusion (human), P01116
Experiment: fluorescence polarization
Settings: modification not given

- Kd: 21 nM
Binder: RRF[S5]GIY[S5]TNILKTEEGN (staple 4-8) [SAH-SOS A2]
